Here are results for 20 molecules from US5849890, “High affinity oligonucleotide ligands to chorionic gonadotropin hormone and related glycoprotein hormones” (NeXstar Pharmaceuticals, Inc.).

Data set [1] addresses T1, human chorionic gonadotropin (hCG) heterodimer (Homo sapiens, UniProt P01215;P0DN86 P01215:25-116,P0DN86:21-165). Description: filter; 5.8 +/- 2.8 nM in Table 5. The settings on record: tags: Calbiochem or Vitro Diagnostics (14,000 IU/mg); chain copies: alpha/beta heterodimer (stated); label: 32P; G4 (RNase T1 protection in K+).
Data set [2] has as its target T2, human luteinizing hormone (hLH) (Homo sapiens, UniProt P01215;P01229 P01215:25-116,P01229:21-141). As to the kind of experiment: filter. The conditions noted are these: tags: Becton Dickinson (2'-NH2 work); Scripps/Vitro Diagnostics (2'-F work); chain copies: alpha/beta heterodimer (inferred); label: 32P; G4 (RNase T1 protection in K+). The procedure:
(§1) Internally-labeled RNA transcripts were prepared by including [α-^32P]ATP in T7 RNA polymerase transcription reactions. Full-length transcripts were purified on 8% denaturing polyacrylamide gels to ensure size homogeneity. Gel-purified RNA was diluted to a concentration of ~5 nM in TEM buffer, heated to 80° C. then chilled on ice to facilitate secondary structure formation. RNA concentrations were kept lower than 100 pM in binding reactions. Briefly, equal amounts of RNA were incubated with varying amounts of hormone in 50 μL of TEM buffer for 10 minutes at 37° C. RNA-protein mixtures were passed through pre-wet nitrocellulose filters (0.2μ), and the filters were immediately washed with 5 mL of binding buffer. Radioactivity retained on filters was determined by liquid scintillation counting. The quantities of RNA bound to filters in the absence of protein was determined and used for background correction. The percentage of input RNA retained on each filter was plotted against the corresponding log protein concentration. The nonlinear least square method was used to obtain the dissociation constant (K_d) (Jellinek et al. (1993) Proc. Natl. Acad. Sci. U.S.A. 90:11227–11231; Irvine et al. (1991) J. Mol. Biol. 222:739–761).
(§2) By incorporating a counterselection step, SELEX allowed the isolation of hCG-specific RNA ligands (Example 5, infra).

The target of data set [3] is T3, human follicle stimulating hormone (hFSH) (Homo sapiens, UniProt P01215;P01225 P01215:25-116,P01225:19-129). Description: filter. The settings on record: tags: Becton Dickinson; chain copies: alpha/beta heterodimer (inferred); label: 32P; possible hairpin; no G4 by RNase T1.
T3 sequence (P01215 25-116, chain 1 of 2): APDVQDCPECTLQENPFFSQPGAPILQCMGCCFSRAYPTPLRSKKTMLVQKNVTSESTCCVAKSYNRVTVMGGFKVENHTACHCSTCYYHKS
T3 sequence (P01225 19-129, chain 2 of 2): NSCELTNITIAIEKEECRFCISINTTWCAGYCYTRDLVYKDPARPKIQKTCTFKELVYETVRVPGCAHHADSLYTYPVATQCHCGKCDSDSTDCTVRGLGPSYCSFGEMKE
The target of data set [4] is T4, human thyroid stimulating hormone (hTSH) (Homo sapiens, UniProt P01215;P01222 P01215:25-116,P01222:21-132). Description: filter; not pH sensitive, pH 5.8-7.2. The conditions noted are these: tags: Becton Dickinson; chain copies: alpha/beta heterodimer (inferred); label: 32P; possible hairpin; no G4 by RNase T1.
T4 sequence (P01215 25-116, chain 1 of 2): as the sequence (P01215 25-116, chain 1 of 2) above
T4 sequence (P01222 21-132, chain 2 of 2): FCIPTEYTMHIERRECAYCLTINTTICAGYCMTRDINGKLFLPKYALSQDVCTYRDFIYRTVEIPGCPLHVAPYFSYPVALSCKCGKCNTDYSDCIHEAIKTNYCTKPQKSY
For data set [5], the target named is T1, human chorionic gonadotropin (hCG) …. Description: filter; conserved region mutated. The conditions noted are these: tags: Calbiochem or Vitro Diagnostics (14,000 IU/mg); chain copies: alpha/beta heterodimer (stated); label: 32P. From the text:
(§3) PCR products generated from the RNA population isolated after six cycles of selection were cloned into pUC18 and 43 clones were sequenced (Table 13). As with the high affinity ligands selected in the first SELEX experiment in this example, 37 of the sequenced ligands are capable of assuming a stem-loop structure which places the conserved, unselected, 13-nt sequence in the "loop" structure.

Data set [6] has the same target. Description: filter; 17.2% bound at 100 nM. The settings on record: tags: Calbiochem or Vitro Diagnostics (14,000 IU/mg); chain copies: alpha/beta heterodimer (stated); label: 32P; hairpin.
Data set [7] shares this target. Description: filter; Mg, pH 6.5; Kd rises >25-fold at pH 7.0. The settings on record: tags: Calbiochem or Vitro Diagnostics (14,000 IU/mg); chain copies: alpha/beta heterodimer (stated); label: 32P.
Data set [8] has as its target glycoprotein hormone common alpha-subunit (UniProt P01215 P01215:25-116). As to the kind of experiment: filter. The settings on record: tags: UCB-bioproducts; label: 32P. The procedure: as §1, §2
The target in a further data set is hCG beta-subunit (Homo sapiens, UniProt P0DN86 P0DN86:21-165). As to the kind of experiment: filter. The settings on record: tags: Calbiochem or Vitro Diagnostics; label: 32P. The method, then: as §1, §2
Data set [9] deals with T2, human luteinizing hormone (hLH). Description: filter; Mg, pH 6.5; <2-fold change at pH 7.0. The conditions noted are these: tags: Becton Dickinson (2'-NH2 work); Scripps/Vitro Diagnostics (2'-F work); chain copies: alpha/beta heterodimer (inferred); label: 32P.
In data set [10] the target is T1, human chorionic gonadotropin (hCG) …. As to the kind of experiment: filter; TEM or TESM, 2.1 mM Mg, pH 6.5, 37 C. The conditions noted are these: tags: Calbiochem or Vitro Diagnostics (14,000 IU/mg); chain copies: alpha/beta heterodimer (stated); label: 32P; G4 (RNase T1 protection in K+). The procedure: as §1, §2
For data set [11], the target named is T4, human thyroid stimulating hormone (hTSH). As to the kind of experiment: filter; Mg, pH 6.5. The settings on record: tags: Becton Dickinson; chain copies: alpha/beta heterodimer (inferred); label: 32P; G4 (RNase T1 protection in K+). The procedure: as §1, §2
Data set [12] concerns the target T2, human luteinizing hormone (hLH). Description: filter; Mg, pH 6.5. The settings on record: tags: Becton Dickinson (2'-NH2 work); Scripps/Vitro Diagnostics (2'-F work); chain copies: alpha/beta heterodimer (inferred); label: 32P; G4 (RNase T1 protection in K+). The procedure: as §1, §2
Data set [13] concerns the target T3, human follicle stimulating hormone …. As to the kind of experiment: filter; Mg, pH 6.5. The settings on record: tags: Becton Dickinson; chain copies: alpha/beta heterodimer (inferred); label: 32P; G4 (RNase T1 protection in K+). The procedure:
as §1, §2

The target in data set [14] is T1, human chorionic gonadotropin (hCG) …. As to the kind of experiment: filter; +/- 3 nM (Table 5). The settings on record: tags: Calbiochem or Vitro Diagnostics (14,000 IU/mg); chain copies: alpha/beta heterodimer (stated); label: 32P; G4 (RNase T1 protection in K+).
Data set [15] has the same target. Description: filter; no significant stem. The settings on record: tags: Calbiochem or Vitro Diagnostics (14,000 IU/mg); chain copies: alpha/beta heterodimer (stated); label: 32P.
Text: as §3

The target is the same in data set [16]. Description: filter; +/- 9 nM. The settings on record: tags: Calbiochem or Vitro Diagnostics (14,000 IU/mg); chain copies: alpha/beta heterodimer (stated); label: 32P; intramolecular G4. The method, then: as §1
The target is the same in data set [17]. As to the kind of experiment: filter; SBB buffer. The settings on record: tags: Calbiochem or Vitro Diagnostics (14,000 IU/mg); chain copies: alpha/beta heterodimer (stated); label: 32P; hairpin.
Data set [18] shares this target. Description: filter; in urine. The settings on record: tags: Calbiochem or Vitro Diagnostics (14,000 IU/mg); chain copies: alpha/beta heterodimer (stated); label: 32P; hairpin.
Data set [19] shares this target. As to the kind of experiment: filter; +/- 13 nM. The settings on record: tags: Calbiochem or Vitro Diagnostics (14,000 IU/mg); chain copies: alpha/beta heterodimer (stated); label: 32P; intramolecular G4. The method, then: as §1
Data set [20] has the same target. As to the kind of experiment: filter. The settings on record: tags: Calbiochem or Vitro Diagnostics (14,000 IU/mg); chain copies: alpha/beta heterodimer (stated); label: 32P.
Data set [21] has the same target. As to the kind of experiment: filter. The conditions noted are these: tags: Calbiochem or Vitro Diagnostics (14,000 IU/mg); chain copies: alpha/beta heterodimer (stated); label: 32P; two hairpins.

T2 sequence (P01215 25-116, chain 1 of 2): as the sequence (P01215 25-116, chain 1 of 2) above
T2 sequence (P01229 21-141, chain 2 of 2): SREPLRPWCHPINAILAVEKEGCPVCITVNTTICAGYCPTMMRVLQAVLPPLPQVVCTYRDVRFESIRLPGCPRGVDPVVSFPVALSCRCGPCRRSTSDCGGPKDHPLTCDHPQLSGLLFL
T1 sequence (P01215 25-116, chain 1 of 2, other chains not shown): as the sequence (P01215 25-116, chain 1 of 2) above
Chain of glycoprotein hormone common alpha-subunit (P01215 25-116, one chain of several): as the sequence (P01215 25-116, chain 1 of 2) above

B1: H-25 (ssRNA)
RNA: GGGAGGACGAUGCGGAAAGGAGGAGGCUGGGUGCGUCAAGAGUUCUCCCGAGCGCCAGACGACUCGCCCGA
modifications: 2'-NH2 all pyrimidines
As usually defined, the Kd is the concentration at which binding is half-saturated. Read a low Kd as higher affinity. Take B1: the Kd in [1] turned out to be 6 nM; in [2] it was 17.5 nM.

B2: T-15 (ssRNA)
RNA: GGGAGGACGAUGCGGAUGUUGGCAGCAGGGUCCGACGGCGUAACCUUGCCAGCUGCAGACGACUCGCCCGA
modifications: 2'-NH2 all pyrimidines
Turning to B2, the Kd is roughly 200 nM in data set [3] and 14 nM in data set [4].

B3: 2nd generation ligand 84 (ssRNA)
RNA: GGGAGGACGAUGCGGUUGGUUAUCCAUGUUGAACGUUCCUUCAUGUCGAAUAUGCAGACGACUCGCCCGA
modifications: 2'-F all pyrimidines
Regarding B3, the binding signal in [5] amounted to 0.24 % bound at 100 nM.

B4: 2nd generation ligand 18 (ssRNA)
RNA: GGGAGGACGAUGCGGCAUUCGCUGAUUCUUGAACGAUCCUUGAUGAUGUGGAUGCAGACGACUCGCCCGA
modifications: 2'-F all pyrimidines
The molecule B4 had a Kd in [6] of 150 nM.

B5: H-42 (ssRNA)
RNA: GGGAGGACGAUGCGGACAAGGGCCUGAGUGUGGAGGGCACGUGGAGGGGACUGGCCAGACGACUCGCCCGA
modifications: 2'-NH2 all pyrimidines
In the case of B5, the Kd is 6.2 nM in [7], roughly 1400 nM in data set [8], roughly 200 nM in the data set with hCG beta-subunit and 15 nM in data set [9].

B6: H-30 (ssRNA)
RNA: GGGAGGACGAUGCGGUACUGUAAAACAAUCUGGAGGAGGGUCUAGGGGAUGGUGGCAGACGACUCGCCCGA
modifications: 2'-NH2 all pyrimidines
For B6, the Kd was 20 nM in data set [10], roughly 1600 nM in data set [11], 51 nM in data set [12] and roughly 1700 nM in [13].

B7: H-17 (ssRNA)
RNA: GGGAGGACGAUGCGGAGGGAACGCGGAGGGGUGUGUCCCCCAGACUACAAGGCGGCAGACGACUCGCCCGA
modifications: 2'-NH2 all pyrimidines
Take B7: binding in [14] was put at a Kd of 7.5 nM.

B8: 2nd generation ligand 77 (ssRNA)
RNA: GGGAGGACGAUGCGGCAGUGUCAACAUCUUGAACGAUCCUUUUUUUCAGCGCGUCAGACGACUCGCCCGA
modifications: 2'-F all pyrimidines
In [15], B8 returned a binding signal of 0.42 % bound at 100 nM.

B9: delta25 (ssRNA)
RNA: GGAGGACGAUGCGGAAAGGAGGAGGCUGGGUGCGUC
modifications: 2'-NH2 all pyrimidines
Regarding B9, the Kd in data set [16] was determined as 24 nM.

B10: 2nd generation ligand 82 (ssRNA)
RNA: GGGAGGACGAUGCGGUAACAGUCGAUUCUUGAACGAUCCUUUCCACUUCAACCGCAGACGACUCGCCCGA
modifications: 2'-F all pyrimidines
On to B10, for which the binding signal in data set [15] was 0 % bound at 100 nM.

B11: hCG ligand 9TR1 (ssRNA)
RNA: GGGAGUCUCGUUGGUCGUUGAACGAUCCUUCGACAGGAGGCUCA
modifications: 2'-F all pyrimidines
As for B11, the Kd in data set [17] is 200 nM; in [18], 100 nM.

B12: delta17 (ssRNA)
RNA: GGAGGACGAUGCGGAGGGAACGCGGAGGGGUG
modifications: 2'-NH2 all pyrimidines
On to B12, for which, in data set [19], the Kd was found to be 25 nM.

B13: 2nd generation ligand 59 (ssRNA)
RNA: GGGAGGACGAUGCGGUAACUCUUAAUUCUUGAACAAUCCUUGAAUUUAGCGGACCAGACGACUCGCCCGA
modifications: 2'-F all pyrimidines
For the molecule B13, the binding signal in data set [5] is 1.88 % bound at 100 nM.

B14: 2nd generation ligand 76 (ssRNA)
RNA: GGGAGGACGAUGCGGACCGACUAAAUGAUUGAACGAUCCUUAUUGUCUCUAUCACAGACGACUCGCCCGA
modifications: 2'-F all pyrimidines
In turn, B14 yielded a binding signal in data set [15] of 0.2 % bound at 100 nM.

B15: Class 1 ligand 28 (ssRNA)
RNA: GGGAGACAAGAAUAAACGCUCAAACAGCGAUUGAACGAUCCUUUCAGCUGAUGGGUACGGGAUUCGACAGGAGGCUCACAACAGGC
modifications: 2'-F all pyrimidines
As to B15, the binding signal in [20] amounted to 0.58 % bound at 100 nM.

B16: 2nd generation ligand 95 (ssRNA)
RNA: GGGAGGACGAUGCGGGUUUUCCUACUAGUUGAAUGAUCCUUCUAGUUAGAUGCCAGACGACUCGCCCGA
modifications: 2'-F all pyrimidines
B16 had a binding signal in data set [5] of 1.57 % bound at 100 nM.

B17: ligand 25/9 dimer (ssRNA)
RNA: GGGAGACAAGAAUAAACGCUCAACAGUGAUUGAACGAUCCUUUCAGCUGGUGGGUAUGGUCCCGGAGUCUCGUUGGUCGUUGAACGAUCCUUCGACAGGAGGCUCA
modifications: 2'-F all pyrimidines
With B17, the Kd in [21] was roughly 200 nM.

B18: 2nd generation ligand 7 (ssRNA)
RNA: GGGAGGACGAUGCGGAUGAGCUUGAUAAUGGAACGAUCCUUUUAACGGUUCUUCCAGACGACUCGCCCGA
modifications: 2'-F all pyrimidines
B18: the binding signal in data set [5] came to 0 % bound at 100 nM.

B19: 2nd generation ligand 8 (ssRNA)
RNA: GGGAGGACGAUGCGGUUCGAUUCCAAGUUGAACGAUCCUCCUUUUGAUUAGACCAGACGACUCGCCCGA
modifications: 2'-F all pyrimidines
B19 yielded a binding signal in [5] of 0.73 % bound at 100 nM.

B20: 2nd generation ligand 37 (ssRNA)
RNA: GGGAGGACGAUGCGGAAUUCCCCCAAGAUUGAACGGUCCUUUCUCGCAGAUGUUCAGACGACUCGCCCGA
modifications: 2'-F all pyrimidines
As to B20, the binding signal in data set [5] came to 0 % bound at 100 nM.
